Positions count from the first letter of the chain named. Numbers in names are those of the source.
B1: HuCS1.31D2.2 (antibody, V domains shown)
VH: EVQLVESGGGLVQPGGSLRLSCAASGFTFSDYYMAWVRQAPGKGLEWVADINYDGGSTYYLDSLKSRFTISRDNAKNSLYLQMNSLRAEDTAVYYCARDRGYYFDYWGQGTLVTVSS
VL: DVVMTQSPLSLPVTPGEPASISCRSSQSLVHSNGNTYLHWYLQKPGQSPQLLIYKVSNRFSGVPDRFSGSGSGTDFTLKISRVEAEDVGVYFCSQSTHVPPFTFGGGTKVEIK
notes: Humanized antibody; It has a human Fc (detected with anti-human Fc); also called Hu31D2
B2: HuCS1.27A12 (antibody, V domains shown)
VH: B1 VH with D50E, G56S, L61V, L64V, S66G, Y102F, L112T
VL: B1 VL with S7T, P12S, E17Q, S32N, F102Y
notes: Humanized antibody; It has a human Fc (detected with anti-human Fc); also called Hu27A12
B3: HuCS1.34C3 (antibody, human IgG1, kappa, V domains shown)
VH: B1 VH with D50S, G56S, L61V, L64V, S66G, L112T
VL: DVVMTQTPLSLSVTPGQPASISCRSSQSLVHSNGNTYLHWYLQKPGQSPQLLIYKVSNRFSGVPDRFSGSGSGTDFTLKISRVEAEDVGVYFCSQSTHVPPFTFGGGTKVEIKR
notes: Humanized IgG1; also called Hu34C3
B4: elotuzumab (antibody, IgG1, V domains shown)
VH: EVQLVESGGGLVQPGGSLRLSCAASGFDFSRYWMSWVRQAPGKGLEWIGEINPDSSTINYAPSLKDKFIISRDNAKNSLYLQMNSLRAEDTAVYYCARPDGNYWYFDVWGQGTLVTVSS
VL: DIQMTQSPSSLSASVGDRVTITCKASQDVGIAVAWYQQKPGKVPKLLIYWASTRHTGVPDRFSGSGSGTDFTLTISSLQPEDVATYYCQQYSSYPYTFGQGTKVEIKR
notes: also called HuLuc63
B5: CS1.AD159.27A12 (antibody, V domains shown)
VH: EVKLVESEGGLVQPGSSMKLSCTASGFTFSDYYMAWVRQVPEKGLEWVAEINYDGSSTYYLDSLKSRFIISRDNAKNILYLQMSNLKSEDTATYYCARDRGFYFDYWGQGTTLTVSS
VL: B1 VL with S7T, T14S, P15L, E17D, P18Q, S32N, Q50K, V88L, F102Y, V110L
notes: Murine hybridoma antibody; also called Mu27A12
B6: CS1.AD159.31D2 (antibody, V domains shown)
VH: B5 VH with E50D, S56G, Y80C, N85S, F102Y
VL: B1 VL with S7T, T14S, P15L, E17D, P18Q, Q50K, V88L, V110L
notes: Murine hybridoma antibody; also called Mu31D2
B7: CS1.AD159.14C11 (antibody, V domains shown)
VH: B5 VH with E50S, N85G, Y95S
VL: B1 VL with S7T, T14S, P15L, E17D, P18Q, S32R, Q50K, V88L, F102Y, V110L
notes: Murine hybridoma antibody; also called Mu14C11
B8: CS1.AD159.34C3 (antibody, V domains shown)
VH: B5 VH with E50S, Y80F, S84N, N85S, F102Y
VL: B1 VL with S7T, T14S, P15L, E17D, P18Q, Q50K, V88L, V110L
notes: Murine hybridoma antibody; also called Mu34C3
B9: CS1.AD159.12D10 (antibody, V domains shown)
VH: B5 VH with Y33F, E50S, S56N, Y60F, N85S
VL: DVVMTQTPLSLPVSLGDQASISCRFSQSLVHRNGNTYLHWYLQKPGQSPKLLIYKVSNRFSGVPDRFSGSGSGTDFTLKISRVEAEDLGVYFCSQSTHVRPYTFGGGTKLEIR
notes: Murine hybridoma antibody; also called Mu12D10
B10: Hu34C3 S55E (antibody, V domains shown)
VH: B1 VH with D50S, G56E, L61V, L64V, S66G, L112T
VL: B1 VL with S7T, P12S, E17Q
B11: Hu34C3 S55E/N30L (antibody, V domains shown)
VH: B1 VH with D50S, G56E, L61V, L64V, S66G, L112T
VL: B1 VL with S7T, P12S, E17Q, N35L
notes: Double mutant of Hu34C3
B12: Hu34C3 N30L (antibody, V domains shown)
VH: B1 VH with D50S, G56S, L61V, L64V, S66G, L112T
VL: B1 VL with S7T, P12S, E17Q, N35L

What follows are binders tested against T1, human CS1 (HuCS1) (human, UniProt Q9NQ25 23-335) (assay: flow cytometry on L-363 cells; GeoMean (max) relative to elotuzumab).
T1 construct: also called FL-HuCS1; SLAMF7
Method: (§1) L-363 cells were incubated with different amounts of test antibody on ice for 30 min. Cells were washed three times with PBS+1% FBS. A PE-conjugated goat anti-human Fc antibody was added to the cells and incubated for 30 min on ice. Cells were washed three times with PBS+1% FBS, and binding was quantitated by flow cytometry.

Row | Binder | % of Elotuzumab
1 | B1 | 160%
2 | B2 | 142%
3 | B3 | 249%
4 | B4 | 100%

These binders were tested against T2, human CS1 ECD-huIgG1 (human, UniProt Q9NQ25 23-226) (assay: hybridoma screen of Example 1 (ELISA on ECD-huIgG1 fusions, flow cytometry on OPM-2 cells); member named in Table 5).
T2 construct: Its preparation is not described; also called HuCS1Fc; HuCS1-Fc; not shown: constant region of human IgG1 (huIgG1 Fc)
Method: Specificity of antibodies secreted by hybridomas was determined by binding to human CS1 ECD-huIgG1 and CmCS1 ECD-huIgG1, and not to negative control CLL1 ECD-huIgG1 by ELISA. […] Hybridoma supernatants were allowed to bind to the proteins and detected with an HRP conjugated donkey anti mouse IgG (H+L) antibody. Hybridomas that recognized both human and cynomolgus but not CLL fusion proteins were further tested for binding to the huCS1 molecule on an endogenously expressing OPM-2 cells using standard flow cytometry protocols. Briefly, OPM-2 cells were incubated with hybridoma supernatants for 30 minutes on ice. After extensive washing, cells were incubated with phycoerythrin conjugated goat anti mouse IgG specific antibodies for 30 minutes on ice. Cells were washed again and analyzed on a Becton Dickinson FACSCalibur for the presence of cell surface bound antibodies.

Row | Binder | binding result
5 | B5 | binds
6 | B6 | binds
7 | B7 | binds
8 | B8 | binds
9 | B9 | binds

What follows are binders tested against T1, human CS1 (HuCS1) (assay: FACS, binding relative to Hu34C3; cells not given).

Row | Binder | % Binding
10 | B10 | 125%
11 | B11 | 134%
12 | B12 | 128%

Each binder was assayed against T1, human CS1 (HuCS1) (assay: flow cytometry on 293s cells transfected with human CS1).

Row | Binder | concentration at which 80% of maximal binding occurred
13 | B3 | 10 µg/mL

The binders below were run against T1, human CS1 (HuCS1) (assay: flow cytometry on L-363 cells; maximum fluorescent value at any tested concentration).
Method: as §1

Row | Binder | GeoMean (max)
14 | B1 | 28
15 | B2 | 24.8
16 | B3 | 43.5
17 | B4 | 17.5

The binders below were run against T1, human CS1 (HuCS1) (assay: flow cytometry on L-363 cells, PE goat anti-human Fc detection).
Method: as §1

Row | Binder | EC50
18 | B1 | 3.1 nM
19 | B2 | 4.7 nM
20 | B3 | 2.5 nM
21 | B4 | 35.9 nM

— patent publication US20160122430A1 (AbbVie / Abbott, published 2016)
